The results in this text go back to PMC2705212 (Journal of molecular biology, 2008).

The labels stand for the following.
B1: BMPRII-Fc chimera (soluble extracellular domain of BMP receptor II) (Fc fusion, human, UniProt Q13873 27-150, looked up)
chain: SQNQERLCAFKDPYQQDLGIGESRISHENGTILCSKGSTCYGLWEKSKGDINLVKQGCWSHIGDPQECHYEECVVTTTPPSIQNGTYRFCCCSTDLCNVNFTENFPPPDTTPLSPPHSFNRDET
B2: BMP-7 growth factor dimer (ligand, human, UniProt P18075 293-431, looked up)
chain: STGSKQRSQNRSKTPKNQEALRMANVAENSSSDQRQACKKHELYVSFRDLGWQDWIIAPEGYAAYYCEGECAFPLNSYMNATNHAIVQTLVHFINPETVPKPCCAPTQLNAISVLYFDDSSNVILKKYRNMVVRACGCH

Test [1] has as its target BMP-7 prodomain-growth factor complex (UniProt P18075). The test can be described thus: SPR.
Another test deals with BMP-7 prodomain. The test can be described thus: SPR. On the technique in general: SPR reads the build-up and loss of mass on a sensor chip optically.
Test [2] addresses BMPRII-Fc chimera (soluble extracellular domain of BMP receptor II) (human) (UniProt Q13873). The test can be described thus: SPR.
Test [3] concerns the target ActRIIA-Fc chimera (soluble extracellular domain of activin receptor IIA) (human) (UniProt P27037). The test can be described thus: SPR.
Test [4] concerns the target B2. Kind of test: SPR.
The target of test [5] is B1. The test can be described thus: AUC.

Sequence of ActRIIA-Fc chimera (soluble extracellular domain of activin receptor IIA) (human) (P27037 20-135, change not shown): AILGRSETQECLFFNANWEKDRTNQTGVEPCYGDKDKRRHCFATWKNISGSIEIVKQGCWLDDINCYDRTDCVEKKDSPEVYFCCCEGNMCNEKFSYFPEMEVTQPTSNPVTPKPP

As to “ActRIIA-Fc chimera (soluble extracellular domain of activin receptor IIA) (from UniProt P27037 20-135) (Fc fusion)”, in test [1], the reduction of the response against immobilized BMP-7 gfd turned out to be 90%.
As usually defined, the koff is a measure of how fast the partners let go of each other. Usually kon stands for a measure of how fast the partners come together. In the test with BMP-7 prodomain, “BMP-7 growth factor dimer (from UniProt P18075 293-431) (ligand)” had a koff of 0.00209 s⁻¹ and a kon of 98700 M⁻¹ s⁻¹.
For “BMP-7 prodomain-growth factor complex (from UniProt P18075 293-431)”, the koff was determined as 0.00213 s⁻¹ in test [2] and 0.00352 s⁻¹ in test [3]. Also, the on-rate constant (kon) in test [2] is 216000 M⁻¹ s⁻¹; in test [3], 265000 M⁻¹ s⁻¹.
In test [4], B1 came in with a koff of 0.00298 s⁻¹ and a kon of 625000 M⁻¹ s⁻¹. In test [1], this molecule had a reduction of the response against immobilized BMP-7 gfd of 90%.
As a reminder, the stoichiometry N is a count of units in the complex or per binding partner. For B2, the “stoichiometry N” value in test [5] stood at 2 gfd per BMPRII-Fc dimer.
